The target in experiment [1] is Adenosine A2A receptor (human) (human) (UniProt P29274). The experiment is described as follows: cell-based or functional assay.
The target is the same in experiment [2]. The experiment is described as follows: flow cytometry, control antibody, HEK293-A2a cells (A2a Singlets); Parent Singlets median 230.
Experiment [3] has the same target. In words: flow cytometry, control antibody, HEK293-A2a cells (A2a Singlets); Parent Singlets median 230; same picture as FIG. 16O.
The target is the same in experiment [4]. The experiment is described as follows: flow cytometry titration 0.05-100 nM IgG, MFI; grey curve and grey number taken as HEK293-A2a cells, black (ND) as parent cells; same data as FIG. 17H. For orientation: In flow cytometry, cells or beads pass a laser one at a time.
The target is the same in experiment [5]. In words: flow cytometry titration 0.05-100 nM IgG, MFI; grey curve and grey number taken as HEK293-A2a cells, black (ND) as parent cells, no legend on the sheet.

The values that follow come from patent publication US20250145724A1.

Sequence of Adenosine A2A receptor (human) (human) (P29274 whole entry): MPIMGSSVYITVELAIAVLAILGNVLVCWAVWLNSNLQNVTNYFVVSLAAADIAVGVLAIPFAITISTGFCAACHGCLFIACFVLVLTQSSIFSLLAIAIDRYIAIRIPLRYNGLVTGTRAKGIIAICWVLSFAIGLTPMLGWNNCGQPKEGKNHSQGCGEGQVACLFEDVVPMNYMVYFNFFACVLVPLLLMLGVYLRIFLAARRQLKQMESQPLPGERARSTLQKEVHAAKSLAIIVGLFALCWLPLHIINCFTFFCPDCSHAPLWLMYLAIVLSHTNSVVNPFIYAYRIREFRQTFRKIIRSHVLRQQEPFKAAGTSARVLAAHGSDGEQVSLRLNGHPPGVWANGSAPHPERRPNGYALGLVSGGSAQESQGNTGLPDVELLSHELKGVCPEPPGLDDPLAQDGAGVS

Take R&D control antibody: in experiment [1], the Absolute IC50, A2A cAMP antagonist titration was determined as 9.43; the Absolute IC50, LANCE allosteric cAMP assay (titrated IgG, fixed NECA) stood at 0.00943 µM; the Absolute IC50, cAMP allosteric A2A Perkin Elmer assay was 0.000513 µM.

The EC50 is the concentration needed to bring the measured effect to its halfway point. As for “Human Adenosine A2aR monoclonal (MAB9497) (antibody)”, the Median : RL1-H in experiment [2] and in experiment [3] was 7500 each time. Besides, the EC50 in experiment [4] and in experiment [5] was 0.0217 µM each time.
